Assay results from a protein production outcome set (Wang et al. 2014).

Test: label from the status in PepcDB records

| Sequence | protein production |
| --- | --- |
| MHLSAYLLLVASLLFALFFAGTAAIQIWQGRTTALPWMEKGHLMLTAFMSVASAVLLHALANFDFSLVYVASYTDRALPLFYRLTAFWAGQAGSMLFWGWSVALFGVFFLFSPVYRRVSEPTRMWFWLLFLAMMGFFLLVLTCWSNPFTVVDPAPADGNGLNPLLQNPGMIFHPPLLFLGYGGFAIPGCLALAQSLSGMRLSEGAWADHARPFTLVAWLFLTAGIVLGGWWAYMELGWGGYWAWDPVENASLIPWLIASAYLHTAVIEARRNKLHRVNTFLMALTTISAFFATYLVRSGVVESLHAFGDGGVGTPLLIFIIVFTAVALGGSILWKHPDAKPLSGVESREGFLVMVAWVLLALGAIILVATMWPVFSKFWVDKPVGLEPAFYNRVCLPLFAVLVVMLAICPWLGWKGGLRNKVGAVTALGLFVGAAGGIWAAGYTIPTAVLGAAGAIAALGGIVMLLATEPHLRRSPQSLAAYGVHIGLALTALGVAFSGPYKTEHEVIMQQGDTVQVAGYDVTFKALYEGEGPGYIFIEAELDVKKNGSDVGMAQPQRRIYSKFGKQAFAEASTIPGLGNEFYAVLLGVDREGKATLHLNVTPLINWVWIGSIIMCLFPFIGMRRRKTAEA | failed |
| MHLSLMISRHYINRMKLSLMHISILAGIPEEFKVNIYIGWLFKLIPLIMGLICIALGGFVLESSGQSEYFVAGHVLISLAAICLALFTTAFIIISQLTRGVNTFYNTLFPIIGYAGSIITMIWGWALLAGNDVMADEFVAGHVIFGVGMIAACVSTVAASSGHFLLIPKNAAGSKSDGTPVQAYSSLIGNCLIAVPVLLTLLGFIWSITLLRSADITPHYVAGHVLLGLTAICACLIGLVATIVHQTRNTFSTKEHWLWCYWVIFLGSITVLQGIYVLVSSDASARLAPGIILICLGMICYSIFSKVWLLALVWRRTCSLANRIPMIPVFTCLFCLFLASFLAEMAQTDMGYFIPSRVLVGLGAVCFTLFSIVSILEAGSAKK | failed |
| MHLTKTWLAQLPLTDIQQVQPVSGGDINAAFQIITRHHQYFLKVQPHNDVTFFDHEVAGLRLLGAVTKTPRVIASGTIATDGYLLLDWLATGTGSQSALGAAVAKVHHQHHAQFGLDHDFTAGKLPKINHWQTDWATFYTQQRLDVLVNLAKEHHLWSETREMHYHRLRQQLLQDSHMHTVKPSLLHGDLWSGNYLFDTTGTPVLIDPDVFYGDREMDLAMTTIFGGFDTDFYQAYQAAYPVAPGMQDRLPSYQLYYLLAHLNLFGETYGPAVDRILMQY | failed |
| MHNFEEELTCPICYSIFEDPRVLPCSHTFCRNCLENILQASGNFYIWRPLRIPLKCPNCRSITEIAPTGIESLPVNFALRAIIEKYQQEDHPDIVTCPEHYRQPLNVYCLLDKKLVCGHCLTIGQHHGHPIDDLQSAYLKEKDTPQKLLEQLTDTHWTDLTHLIEKPKEQKSHSEKMIQGDKEAVLQYFKELNDTLEQKKKSFLTALCDVGNLINQEYTPQIERMKEIREQQLELMALTISLQEESPLKFLEKVDDVRQHVQILKQRPLPEVQPVEIYPRVSKILKEEWSRTEIGQIKNVLIPKMKISPKRMSCSWPGTPVYSVAWGPDSEKVLYTAGKQLIIKPLQPNAKVLQWKAHDGIILKVDWNSVNDLILSAGEDCKYKVWDSYGRPLYNSQPHEHPITSVAWAPDGELFAVGSFHTLRLCDKTGWSYALEKPNTGSIFNIAWSIDGTQIAGACGNGHVVFAHVVEQHWEWKNFQVTLTKRRAMQVRNVLNDAVDLLEFRDRVIKASLNYAHLVVSTSLQCYVFSTKNWNTPIIFDLKEGTVSLILQAERHFLLVDGSSIYLYSYEGRFISSPKFPGMRTDILNAQTVSLSNDTIAIRDKADEKIIFLFEASTGKPLGDGKFLSHKNEILEIALDQKGLTNDRKIAFIDKNRDLCITSVKRFGKEEQIIKLGTMVHTLAWNDTCNILCGLQDTRFIVWYYPNTVYVDRDILPKTLYERDASEFSKNPHIVSFVGNQVTIRRADGSLVHISITPYPAILHEYVSSSKWEDAVRLCRFVKEQTMWACLAAMAVANRDMTTAEVAYAAIGEIDKVQYINSIKNLPSKESKMAHILLFSGNIQEAEIVLLQAGLVYQAIQININLYNWERALELAVKYKTHVDTVLAYRQKFLETFGKQETNKRYLHYAEGLQIDWEKIKAKIEMEITKEREQSSSSQSSKSIGLKP | failed |
| MHPALVLAAIALIAIKLDPRFVLGLLVLLTLIYGKKRGFSLKLRNVTEDESYFNAFLFSTILSALSCFSLPKDVVFASIFLISVHNYRKNALWNIAVYTTASLLYFLCYHAVNGVELRLAHTFFISLSGGLTAALVESVDTNADRRLTLLLAISSVFTIFKMYVPSASIYSLAFAFLLSFFVSLLALYAKVADESGLMSATIVGTTLILFADIRFFAVILLFYALGSAITKYKYSVKLERGIAEQAGGARGYANVFGNSLAPLFFAVQFGVSGDAIFAAAFVAAVAAALADTMASEIGKAEEKVYLITNFSRVEPGTSGGISVKGEFAALFGCIVTALLSLLLGIIGFDVLLPVTLSAFAGVHIDSLLGATLEKKGYLTNSAVNFLGTLSAGIICVLLLLPLL | failed |
| MHQQIIKFWFEELTPQNWFENNPELDKHIASRFASVLEQAARCELFNWRDSAQGRLAEIIVLDQFSRNVYRNTPKAFAQDPLALALAQEAIRLGHDQELAPEQLSFLYMPFMHSESRLIHVEAEKLFRASGLENNYDFELKHKAIIDQFGRYPHRNAILGRESTPEELAFLQQPGSSF | not failed |
| MHRTTRIKITELNPHLMCVLCGGYFIDATTIIECLHSFCKTCIVRYLETSKYCPICDVQVHKTRPLLNIRSDKTLQDIVYKLVPGLFKNEMKRRRDFYAAHPSADAANGSNEDRGEVADEDKRIITDDEIISLSIEFFDQNRLDRKVNKDKEKSKEEVNDKRYLRCPAAMTVMHLRKFLRSKMDIPNTFQIDVMYEEEPLKDYYTLMDIAYIYTWRRNGPLPLKYRVRPTCKRMKISHQRDGLTNAGELESDSGSDKANSPAGGVPSTSSCLPSPSTPVQSPHPQFPHISSTMNGTSNSPSGNHQSSFANRPRKSSVNGSSATSSG | failed |
| MHSLARRALHTCNVPRDLNPVTFCDTAGEHPDRVGLDSNAAEAVWRSVEALYRTGVHPGIQLSLRYRGEQVLHRSIGHARGNGPHDPASLPRIPMTTDTPICFFSASKAVTALLMHMLSEQGLVNLMDPVSYYCPEFARNGKRTITVHQILSHRGGIPAIPRETPIDVLWDRDEIWRLLCAAKPVEVDGAKVAYHAITGGFVLQRVLEKVTGDTIESYLDRYLRRPMGMKWFTYGIAPEHLHELASNYATGPTPRFPVSWVVNRALGGDIRTVEKVTNDPRFQEAVIPAGNLCGTAEEMGRFFQMMLNGGSWDGKRICSELTVRRAIQQFGSLQMDRTMLVPMRFSAGMMLGSNPVGLWGQQSRYAFGHVGLINKLCWADPARDISVSLLNTGFPIVGHHLPALARFVYTVCKQFPVLPENQRRLVAA | failed |
| MHSMKLLVTGGMGFIGSNFIRYILEKHPDWEVINIDKLGYGSNPANLKDLEDDPRYTFVKGDVADYELVKELVRKVDGVVHLAAESHVDRSISSPEIFLHSNVIGTYTLLESIRRENPEVRFVHVSTDEVYGDILKGSFTENDRLMPSSPYSATKAASDMLVLGWTRTYNLNASITRCTNNYGPYQFPEKLIPKTIIRASLGLKIPIYGTGKNVRDWLYVEDHVRAIELVLLKGESREIYNISAGEEKTNLEVVKIILRLMGKGEELIELVEDRPGHDLRYSLDSWKITRDLKWRPKYTFDEGIKKTIDWYLKNEWWWKPLVDERILHPTPWKLKW | not failed |
| MHSPLELTLVLLAAAVIGVVLFRMLQLPPMLAYLVVGVVIGPNATGLESDSAQTRYLAEFGVVFLMFSIGLEFSLAKLRSMRRLVLGLGASQVVLTMLLTVPASLLLSRWYPLSWQASLALGGALAMSSTAIVSKMLAERLQLETEHGRNIISVLLFQDLAVVLLLIVVPSLGKNPTDLVLTLSIAAVKIIVALVLILFLGQKLLSRWFHLVAARRSQELFMLNLLLVTLGMAALTERLGLSMALGAFLAGMLVSETPYRLQVEEDIKPFRDVLLGLFFVTVGMLLDPRVVIGHWGLVIGLVIGPVLFKFALIALLARAFGSGGGTAIRTALGLAQAGEFGFVLLNQIDGMRLIDPLLSQAILAAMLLSMLLAPFLIQYSDAIAMRLSRTDWLMQSLAMTKIAAQSLQTERHVIICGYGRSGQNLAHMLEQEDISYVALDLDPDRVRDAAAAGERVVYGDAARRESLVAAGVHRAAAVAVTYADTASALKVLHHVQALAPTLPVIVRTIDDADLDRLQQAGAAEVVPEIIEGSLMLASHALVLLGVPLRRVVRRAQEMRDARYGLLRGYFHGQDDDEDMLERDAVRLHSVPLIKGSPAIGRPLGTLGLETFKTSVTAIRRQGIRALDPEPNTLLELGDIVVLRGTPDGLQQAEERLSPR | failed |
